Measured values: PMC12416549 (2024)

Target: T1, TNFR1 (Homo sapiens, UniProt P19438)
T1 chain: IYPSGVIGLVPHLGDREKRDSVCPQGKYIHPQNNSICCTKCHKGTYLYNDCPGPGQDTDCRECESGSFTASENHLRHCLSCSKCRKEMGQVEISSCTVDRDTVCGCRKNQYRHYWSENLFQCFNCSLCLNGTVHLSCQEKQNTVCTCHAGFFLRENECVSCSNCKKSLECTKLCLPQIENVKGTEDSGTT
Assay: yeast display SC50

B1: A17D (designed binder)
chain: MTLQELLREEALRRAEDEAFRYALELLAEKFPEQKEYLLDLAEEIESQIRSLSGVDVEDVRKFLDKEWAWVKELLAEHPAELAEVEAARAARLAELRAEVEAKVAA
Question: With B1 as the binder, how does the “apparent Kd (screen)” value read?
Answer: 0.79 nM

B2: A98G (designed binder)
chain: MTLQELLREEALRRAEAEAFRYALELLAEKFPEQKEYLLDLAEEIESQIRSLSGVDVEDVRKFLDKEWAWVKELLAEHPAELAEVEAARAARLAELRGEVEAKVAA
Question: Which “apparent Kd (screen)” value does the source give for B2 here?
Answer: 0.718 nM

B3: E77F (designed binder)
chain: MTLQELLREEALRRAEAEAFRYALELLAEKFPEQKEYLLDLAEEIESQIRSLSGVDVEDVRKFLDKEWAWVKELLAFHPAELAEVEAARAARLAELRAEVEAKVAA
Question: How did the “apparent Kd (screen)” value turn out when B3 was run?
Answer: 0.446 nM

B4: V104E (designed binder)
chain: MTLQELLREEALRRAEAEAFRYALELLAEKFPEQKEYLLDLAEEIESQIRSLSGVDVEDVRKFLDKEWAWVKELLAEHPAELAEVEAARAARLAELRAEVEAKEAA
Question: How did the “apparent Kd (screen)” value turn out when B4 was run?
Answer: 0.653 nM

B5: W68G (designed binder)
chain: MTLQELLREEALRRAEAEAFRYALELLAEKFPEQKEYLLDLAEEIESQIRSLSGVDVEDVRKFLDKEGAWVKELLAEHPAELAEVEAARAARLAELRAEVEAKVAA
Question: With B5 as the binder, how does the “apparent Kd (screen)” value read?
Answer: 0.718 nM

B6: F63S (designed binder)
chain: MTLQELLREEALRRAEAEAFRYALELLAEKFPEQKEYLLDLAEEIESQIRSLSGVDVEDVRKSLDKEWAWVKELLAEHPAELAEVEAARAARLAELRAEVEAKVAA
Question: With B6 as the binder, how does the “apparent Kd (screen)” value read?
Answer: 0.956 nM

B7: D65K (designed binder)
chain: MTLQELLREEALRRAEAEAFRYALELLAEKFPEQKEYLLDLAEEIESQIRSLSGVDVEDVRKFLKKEWAWVKELLAEHPAELAEVEAARAARLAELRAEVEAKVAA
Question: B7 was tested. Which “apparent Kd (screen)” value did it give?
Answer: 0.539 nM

B8: E18I (designed binder)
chain: MTLQELLREEALRRAEAIAFRYALELLAEKFPEQKEYLLDLAEEIESQIRSLSGVDVEDVRKFLDKEWAWVKELLAEHPAELAEVEAARAARLAELRAEVEAKVAA
Question: Which “apparent Kd (screen)” value does the source give for B8 here?
Answer: 0.539 nM

B9: A69G (designed binder)
chain: MTLQELLREEALRRAEAEAFRYALELLAEKFPEQKEYLLDLAEEIESQIRSLSGVDVEDVRKFLDKEWGWVKELLAEHPAELAEVEAARAARLAELRAEVEAKVAA
Question: Which “apparent Kd (screen)” value does the source give for B9 here?
Answer: 0.653 nM

B10: E36S (designed binder)
chain: MTLQELLREEALRRAEAEAFRYALELLAEKFPEQKSYLLDLAEEIESQIRSLSGVDVEDVRKFLDKEWAWVKELLAEHPAELAEVEAARAARLAELRAEVEAKVAA
Question: B10 was tested. Which “apparent Kd (screen)” value did it give?
Answer: 0.405 nM

B11: A83T (designed binder)
chain: MTLQELLREEALRRAEAEAFRYALELLAEKFPEQKEYLLDLAEEIESQIRSLSGVDVEDVRKFLDKEWAWVKELLAEHPAELTEVEAARAARLAELRAEVEAKVAA
Question: With B11 as the binder, how does the “apparent Kd (screen)” value read?
Answer: 0.593 nM

B12: A76G (designed binder)
chain: MTLQELLREEALRRAEAEAFRYALELLAEKFPEQKEYLLDLAEEIESQIRSLSGVDVEDVRKFLDKEWAWVKELLGEHPAELAEVEAARAARLAELRAEVEAKVAA
Question: With B12 as the binder, how does the “apparent Kd (screen)” value read?
Answer: 0.49 nM

B13: W68R (designed binder)
chain: MTLQELLREEALRRAEAEAFRYALELLAEKFPEQKEYLLDLAEEIESQIRSLSGVDVEDVRKFLDKERAWVKELLAEHPAELAEVEAARAARLAELRAEVEAKVAA
Question: B13 was tested. Which “apparent Kd (screen)” value did it give?
Answer: 2.48 nM

B14: R92L (designed binder)
chain: MTLQELLREEALRRAEAEAFRYALELLAEKFPEQKEYLLDLAEEIESQIRSLSGVDVEDVRKFLDKEWAWVKELLAEHPAELAEVEAARAALLAELRAEVEAKVAA
Question: With B14 as the binder, how does the “apparent Kd (screen)” value read?
Answer: 0.446 nM

B15: G54F (designed binder)
chain: MTLQELLREEALRRAEAEAFRYALELLAEKFPEQKEYLLDLAEEIESQIRSLSFVDVEDVRKFLDKEWAWVKELLAEHPAELAEVEAARAARLAELRAEVEAKVAA
Question: B15 was tested. Which “apparent Kd (screen)” value did it give?
Answer: 12.5 nM

B16: D65N (designed binder)
chain: MTLQELLREEALRRAEAEAFRYALELLAEKFPEQKEYLLDLAEEIESQIRSLSGVDVEDVRKFLNKEWAWVKELLAEHPAELAEVEAARAARLAELRAEVEAKVAA
Question: Which “apparent Kd (screen)” value does the source give for B16 here?
Answer: 0.49 nM

B17: D40L (designed binder)
chain: MTLQELLREEALRRAEAEAFRYALELLAEKFPEQKEYLLLLAEEIESQIRSLSGVDVEDVRKFLDKEWAWVKELLAEHPAELAEVEAARAARLAELRAEVEAKVAA
Question: For B17, which “apparent Kd (screen)” value is on record?
Answer: 1.4 nM

B18: A94F (designed binder)
chain: MTLQELLREEALRRAEAEAFRYALELLAEKFPEQKEYLLDLAEEIESQIRSLSGVDVEDVRKFLDKEWAWVKELLAEHPAELAEVEAARAARLFELRAEVEAKVAA
Question: Which “apparent Kd (screen)” value does the source give for B18 here?
Answer: 0.593 nM

B19: V60W (designed binder)
chain: MTLQELLREEALRRAEAEAFRYALELLAEKFPEQKEYLLDLAEEIESQIRSLSGVDVEDWRKFLDKEWAWVKELLAEHPAELAEVEAARAARLAELRAEVEAKVAA
Question: Which “apparent Kd (screen)” value does the source give for B19 here?
Answer: 0.79 nM

B20: L74V (designed binder)
chain: MTLQELLREEALRRAEAEAFRYALELLAEKFPEQKEYLLDLAEEIESQIRSLSGVDVEDVRKFLDKEWAWVKEVLAEHPAELAEVEAARAARLAELRAEVEAKVAA
Question: How did the “apparent Kd (screen)” value turn out when B20 was run?
Answer: 2.48 nM

B21: E84H (designed binder)
chain: MTLQELLREEALRRAEAEAFRYALELLAEKFPEQKEYLLDLAEEIESQIRSLSGVDVEDVRKFLDKEWAWVKELLAEHPAELAHVEAARAARLAELRAEVEAKVAA
Question: Which “apparent Kd (screen)” value does the source give for B21 here?
Answer: 0.869 nM

B22: F31W (designed binder)
chain: MTLQELLREEALRRAEAEAFRYALELLAEKWPEQKEYLLDLAEEIESQIRSLSGVDVEDVRKFLDKEWAWVKELLAEHPAELAEVEAARAARLAELRAEVEAKVAA
Question: With B22 as the binder, how does the “apparent Kd (screen)” value read?
Answer: 1.16 nM

B23: L3Y (designed binder)
chain: MTYQELLREEALRRAEAEAFRYALELLAEKFPEQKEYLLDLAEEIESQIRSLSGVDVEDVRKFLDKEWAWVKELLAEHPAELAEVEAARAARLAELRAEVEAKVAA
Question: Which “apparent Kd (screen)” value does the source give for B23 here?
Answer: 0.593 nM

B24: A90Y (designed binder)
chain: MTLQELLREEALRRAEAEAFRYALELLAEKFPEQKEYLLDLAEEIESQIRSLSGVDVEDVRKFLDKEWAWVKELLAEHPAELAEVEAARYARLAELRAEVEAKVAA
Question: How did the “apparent Kd (screen)” value turn out when B24 was run?
Answer: 0.718 nM

B25: E77T (designed binder)
chain: MTLQELLREEALRRAEAEAFRYALELLAEKFPEQKEYLLDLAEEIESQIRSLSGVDVEDVRKFLDKEWAWVKELLATHPAELAEVEAARAARLAELRAEVEAKVAA
Question: B25 was tested. Which “apparent Kd (screen)” value did it give?
Answer: 0.49 nM

B26: L64C (designed binder)
chain: MTLQELLREEALRRAEAEAFRYALELLAEKFPEQKEYLLDLAEEIESQIRSLSGVDVEDVRKFCDKEWAWVKELLAEHPAELAEVEAARAARLAELRAEVEAKVAA
Question: B26 was tested. Which “apparent Kd (screen)” value did it give?
Answer: 2.48 nM

B27: Q4S (designed binder)
chain: MTLSELLREEALRRAEAEAFRYALELLAEKFPEQKEYLLDLAEEIESQIRSLSGVDVEDVRKFLDKEWAWVKELLAEHPAELAEVEAARAARLAELRAEVEAKVAA
Question: Which “apparent Kd (screen)” value does the source give for B27 here?
Answer: 1.16 nM

B28: A80G (designed binder)
chain: MTLQELLREEALRRAEAEAFRYALELLAEKFPEQKEYLLDLAEEIESQIRSLSGVDVEDVRKFLDKEWAWVKELLAEHPGELAEVEAARAARLAELRAEVEAKVAA
Question: B28 was tested. Which “apparent Kd (screen)” value did it give?
Answer: 0.79 nM

B29: A87D (designed binder)
chain: MTLQELLREEALRRAEAEAFRYALELLAEKFPEQKEYLLDLAEEIESQIRSLSGVDVEDVRKFLDKEWAWVKELLAEHPAELAEVEDARAARLAELRAEVEAKVAA
Question: How did the “apparent Kd (screen)” value turn out when B29 was run?
Answer: 0.49 nM

B30: A80C (designed binder)
chain: MTLQELLREEALRRAEAEAFRYALELLAEKFPEQKEYLLDLAEEIESQIRSLSGVDVEDVRKFLDKEWAWVKELLAEHPCELAEVEAARAARLAELRAEVEAKVAA
Question: For B30, which “apparent Kd (screen)” value is on record?
Answer: 0.49 nM

B31: A19N (designed binder)
chain: MTLQELLREEALRRAEAENFRYALELLAEKFPEQKEYLLDLAEEIESQIRSLSGVDVEDVRKFLDKEWAWVKELLAEHPAELAEVEAARAARLAELRAEVEAKVAA
Question: With B31 as the binder, how does the “apparent Kd (screen)” value read?
Answer: 0.446 nM

B32: R14W (designed binder)
chain: MTLQELLREEALRWAEAEAFRYALELLAEKFPEQKEYLLDLAEEIESQIRSLSGVDVEDVRKFLDKEWAWVKELLAEHPAELAEVEAARAARLAELRAEVEAKVAA
Question: For B32, which “apparent Kd (screen)” value is on record?
Answer: 0.539 nM

B33: E81A (designed binder)
chain: MTLQELLREEALRRAEAEAFRYALELLAEKFPEQKEYLLDLAEEIESQIRSLSGVDVEDVRKFLDKEWAWVKELLAEHPAALAEVEAARAARLAELRAEVEAKVAA
Question: With B33 as the binder, how does the “apparent Kd (screen)” value read?
Answer: 0.718 nM

B34: S53V (designed binder)
chain: MTLQELLREEALRRAEAEAFRYALELLAEKFPEQKEYLLDLAEEIESQIRSLVGVDVEDVRKFLDKEWAWVKELLAEHPAELAEVEAARAARLAELRAEVEAKVAA
Question: Which “apparent Kd (screen)” value does the source give for B34 here?
Answer: 2.48 nM

B35: R14E (designed binder)
chain: MTLQELLREEALREAEAEAFRYALELLAEKFPEQKEYLLDLAEEIESQIRSLSGVDVEDVRKFLDKEWAWVKELLAEHPAELAEVEAARAARLAELRAEVEAKVAA
Question: For B35, which “apparent Kd (screen)” value is on record?
Answer: 0.653 nM
